First the molecules themselves.
B1: 367_H06 (antibody, V domains shown)
VH: EVQLLESGGGLVQPGGSLRLSCAASGFTFSSYGMNWVRQAPGKGLEWVSNINYNGGYTGYADSVKGRFTISRDNSKNTLYLQMNSLRAEDTAVYYCARSANWHDTHLDYWGQGTLVTVSS
VL: DIQMTQSPSSLSASVGDRVTITCRASQSIITYLNWYQQKPGKAPKLLIYAATSRASGVPSRFSGSGSGTDFTLTISSLQPEDFATYYCQQSYDTPLTFGGGTKVEIK
B2: 368_A05 (antibody, V domains shown)
VH: B1 VH with G33S, S49A, N50G, G55S, H106A
VL: B1 VL with I30V, T31S, L47V, T94S
B3: 368_D05 (antibody, V domains shown)
VH: B1 VH with G33S, N50G, G59S, H106A
VL: B1 VL with I30L, L47V, Y92D, T94S
B4: 368_A07 (antibody, V domains shown)
VH: B1 VH with G33S, S49A, N50G, G55S, G59S
VL: B1 VL with I30L, L47V, A51T, Y92N, D93E, T94L
B5: 368_C05 (antibody, V domains shown)
VH: B1 VH with S30D, N50G, G55S, G59S, H106A
VL: B1 VL with I30L, T31S, L47V, Y92D, D93S, T94N
B6: 368_F03 (antibody, V domains shown)
VH: B1 VH with S30D, G33S, S49A, N50G, G55S, R98K, H106A
VL: B1 VL with T31S, L47V, A55H, T94S
B7: 368_A09 (antibody, V domains shown)
VH: B1 VH with S30D, G33S, N50G, G59S
VL: B1 VL with I30L, T31S, L33V, A51V, T94S
B8: 368_E04 (antibody, V domains shown)
VH: B1 VH with G33S, S49A, G55S, H106A
VL: B1 VL with I30L, T31S, L33V, A55H, T94N
B9: 368_E07 (antibody, V domains shown)
VH: B1 VH with S49A, N50G, G59S, R98K, H106A
VL: B1 VL with I30L, T31S, A51V, D93E, T94N
B10: 367_H11 (antibody, V domains shown)
VH: B1 VH with S49A, N50G, T58K, H106A
VL: B1 VL with T31S, L33V, L47V, D93N, T94S
B11: 368_B01 (antibody, V domains shown)
VH: B1 VH with N50G, G55S, T58K, G59S, H106A
VL: B1 VL with I30S, T31S, D93E
B12: 368_D01 (antibody, V domains shown)
VH: B1 VH with N35H, S49A, G59S, H106A
VL: B1 VL with I30L, T31S, L47V, Y92D, D93S
B13: 368_D11 (antibody, V domains shown)
VH: B1 VH with S30D, S31D, T58K, G59S, H106A
VL: B1 VL with I30L, L47V, T94L
B14: 368_E01 (antibody, V domains shown)
VH: B1 VH with G33S, S49A, N50S, G55S
VL: B1 VL with I30L, T31S, A51V, A55H, D93S, T94L
B15: 368_E06 (antibody, V domains shown)
VH: B1 VH with S31D, N35H, N50G, H106A
VL: B1 VL with I30L, T31S, L47V, A50G, T94S
B16: 368_D04 (antibody, V domains shown)
VH: B1 VH with N50G, T58K, G59S, H106A
VL: B1 VL with I30S, L33V, L47V, A51V, A55H, T94S
B17: 368_A01 (antibody, V domains shown)
VH: B1 VH with G59S, H106A
VL: B1 VL with T31S, A55H, T94N

Residue numbers refer to the chain shown, from its start.

The target in the experiment is Human Fc (human). The experiment can be described thus: ELISA, negative control.
Consider B1, for which the optical density was determined as 0.313 OD.
Take B2: the optical density is 0.285 OD.
In the case of B3 it was 0.282 OD; in that of B4, 0.261 OD; in that of B5, 0.246 OD.
In the case of B6 it was 0.323 OD.
The molecule B7 displayed an optical density of 0.277 OD.
In the case of B8 it was 0.32 OD.
In turn, B9 registered an optical density of 0.251 OD.
Consider B10, for which the optical density came out at 0.323 OD.
With B11, the optical density was determined as 0.365 OD.
Regarding B12, the optical density came out at 0.319 OD.
In the case of B13 it was 0.297 OD.
With B14, the optical density worked out at 0.392 OD.
In the case of B15 it was 0.325 OD; in that of B16, 0.338 OD; in that of B17, 0.396 OD.
